In patent US20140155582A1 (Astellas, published 2014):

B1: 1-15(N52D-A)-Fab′ conjugated to 5 kDa PEG (Fab, V domains shown)
VH: QVQLQQWGAGLLKPSETLSLTCAVYGGSFSGYYWSWVRQPPGKGLEWIGEIDHSGSTNNNPSLKSRVTISVGTSKNQFSLKLSSVTAADTAVYYCSRDGGPESGMGAFDIWGQGTMVTVSS
VL: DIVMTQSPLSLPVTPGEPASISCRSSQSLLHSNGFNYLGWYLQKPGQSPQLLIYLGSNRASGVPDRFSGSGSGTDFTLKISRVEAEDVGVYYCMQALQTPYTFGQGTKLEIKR
modifications: 5 kDa PEG conjugated by a procedure similar to Example 13 (hinge region Cys)
B2: 1-15(N52D-A)-Fab′ conjugated to 10 kDa PEG (Fab, V domains shown)
VH: B1 VH
VL: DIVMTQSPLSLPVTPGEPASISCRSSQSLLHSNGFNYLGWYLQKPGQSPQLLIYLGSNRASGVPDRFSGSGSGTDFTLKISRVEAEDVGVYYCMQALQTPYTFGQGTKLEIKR
modifications: 10 kDa PEG conjugated by a procedure similar to Example 13 (hinge region Cys)
B3: PEGylated 1-15(N52D)-Fab′ (Fab, V domains shown)
VH: B1 VH
VL: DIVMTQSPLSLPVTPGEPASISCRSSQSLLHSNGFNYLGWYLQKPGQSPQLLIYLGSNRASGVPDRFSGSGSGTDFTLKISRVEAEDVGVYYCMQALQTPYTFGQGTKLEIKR
modifications: 40 kDa PEG (maleimide, SUNBRIGHT GL2-400MA) on Cys at position 230 of SEQ ID NO:10 (C226 based on EU index)
B4: tanezumab (antibody, V domains shown)
VH: QVQLQESGPGLVKPSETLSLTCTVSGFSLIGYDLNWIRQPPGKGLEWIGIIWGDGTTDYNSAVKSRVTISKDTSKNQFSLKLSSVTAADTAVYYCARGGYWYATSYYFDYWGQGTLVTVSS
VL: DIQMTQSPSSLSASVGDRVTITCRASQSISNNLNWYQQKPGKAPKLLIYYTSRFHSGVPSRFSGSGSGTDFTFTISSLQPEDIATYYCQQEHTLPYTFGQGTKLEIKR

Columns and labels:
[1] = target: human βNGF (R&D Systems, Inc.) (human, UniProt P01138 122-241); test: cell-based or functional assay
human βNGF (R&D Systems, Inc.), sequence (P01138 122-241 limits assumed): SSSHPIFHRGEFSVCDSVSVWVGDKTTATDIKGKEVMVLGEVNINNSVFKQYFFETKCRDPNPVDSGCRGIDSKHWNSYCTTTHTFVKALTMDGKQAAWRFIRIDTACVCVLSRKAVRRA

[2] = target: mouse βNGF (R&D Systems, Inc.) (mouse, UniProt P01139 122-241); test: cell-based or functional assay
mouse βNGF (R&D Systems, Inc.), sequence (P01139 122-241 limits assumed): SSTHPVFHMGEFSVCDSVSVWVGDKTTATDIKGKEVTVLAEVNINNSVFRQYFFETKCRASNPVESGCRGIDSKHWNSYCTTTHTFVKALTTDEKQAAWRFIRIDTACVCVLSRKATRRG

Binder | IC50, method of Example 6 at a final NGF concentration of 50 ng/ml [1] | IC50, method of Example 6 (Ca2+, HEK293-human trkA) [2] | IC50, method of Example 6 (Ca2+, HEK293-human trkA) [1]
B1 | 0.03 µg/mL |  | 
B2 | 0.028 µg/mL |  | 
B3 |  | 0.069 µg/mL | 
B4 |  | 0.23 µg/mL | 0.17 µg/mL
